Results: patent US20260043817A1 (UNIVERSITY OF TOKYO, published 2026)

Target: T1, HA-tagged Fluc-DM (Fluc-HA-DM) (firefly, UniProt P08659 1-550 = luciferase)
T1 construct: Model misfolded (structurally abnormal) protein, co-expressed in HeLa cells; Derived from the Addgene plasmid FlucDM-HA-GFP11-N1; also called R188Q/R261Q double mutant of firefly luciferase; aggregated mutant luciferase; not shown: HA tag
Assay: co-immunoprecipitation with anti-FLAG M2 gel from HeLa lysates, immunoblot

B1: FLAG-LONRF2-LonSBm (P5A) (enzyme)
chain: MSPEPVPPPPPPQCPGCDRAEPIAQRLEEGDEAFRAGDYEMAAELFRSMLAGLAQPDRGLCLRLGDALARAGRLPEALGAFRGAARLGALRPEELEELAGGLVRAVGLRDRPLSAENPGGEPEAPGEGGPAPEPRAPRDLLGCPRCRRLLHKPVTLPCGLTVCKRCVEPGPARPQVRRVNVVLSGLLEKCFPAECRLRRLAGQARSLQRQQQPEAALLRCDQALELAPDDNSLLLLRAELYLTMKNYEQALQDASAACQNEPLLIKGHQVKAQALSGLGRSKEVLKEFLYCLALNPECNSVKKEAQKVMCEVLFSATANVHENLTSSIQSRLKAQGHSHMNAQALLEEGDAGSSENSSEKSDMLGNTNSSVLYFILGLHFEEDKKALESILPTAPSAGLKRQFPDDVEDAPDLNAPGKIPKKDLSLQRSPNSETEESQGLSLDVTDFECALCMRLLFEPVTTPCGHTFCLKCLERCLDHAPHCPLCKDKLSELLASRNFNITVLAEELIFRYLPDELSDRKRIYDEEMSELSNLTRDVAIFVCAMAFATVPCALHVFEPRYRLMIRRCMETGTKRFGMCLSAEHAGLSEYGCMLEIKDVRTFADGSSVVDAIGISRFRVLSHRHRDGYNTADIEYLEDEKVEGPEYEELAALHDSVHQQSVSWFASLQDRMKEQILSHFGVMPDREPEPQSNPSGPAWSWWILAVLALERKAQLAILGMTSLKERLLAIRRILVIITRKMNSRQELANARERNN
notes: not shown: FLAG tag
- binding result: no binding
